Assays:
[1] = biological target: T1, recombinant SMase from H. lepturus (Hemiscorpius lepturus, UniProt A0A1L4BJ98); test: BLI; ForteBio Octet RED96, […]; 1:1 binding model, […]; triplicate; details: both partners purified
T1 construct: also called rHl; recombinant sphingomyelinase from Hemiscorpius lepturus; source: E. coli BL21(DE3), purified (HisPur Ni-NTA)

[2] = biological target: T2, recombinant SMase from L. rufescens (Loxosceles rufescens, UniProt C0JB02); test: as above; details: both partners purified
T2 construct: also called rLr; recombinant sphingomyelinase from Loxosceles rufescens; source: E. coli BL21(DE3), purified (HisPur Ni-NTA)
T2 sequence (C0JB02 whole entry, looked up): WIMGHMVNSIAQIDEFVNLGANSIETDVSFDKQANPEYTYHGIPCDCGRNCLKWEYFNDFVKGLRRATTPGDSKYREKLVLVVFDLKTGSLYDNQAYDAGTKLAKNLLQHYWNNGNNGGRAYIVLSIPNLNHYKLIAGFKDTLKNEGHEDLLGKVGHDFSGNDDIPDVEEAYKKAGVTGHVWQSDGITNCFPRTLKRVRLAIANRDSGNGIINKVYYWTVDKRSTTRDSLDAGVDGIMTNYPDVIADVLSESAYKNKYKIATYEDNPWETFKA

T1 sequence (A0A1L4BJ98 whole entry, looked up): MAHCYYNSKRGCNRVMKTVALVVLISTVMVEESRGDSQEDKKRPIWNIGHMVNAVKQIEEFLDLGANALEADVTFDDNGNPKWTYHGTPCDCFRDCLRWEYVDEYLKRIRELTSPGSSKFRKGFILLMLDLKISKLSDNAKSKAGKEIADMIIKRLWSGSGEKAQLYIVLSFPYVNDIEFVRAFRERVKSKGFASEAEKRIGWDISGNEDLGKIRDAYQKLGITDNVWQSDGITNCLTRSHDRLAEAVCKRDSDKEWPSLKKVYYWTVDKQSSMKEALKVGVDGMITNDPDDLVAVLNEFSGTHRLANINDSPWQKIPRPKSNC

Row | Binder | Kd [1] [nM] | Kd [2] [nM]
1 | TPL0674_03_A04 (scFv, V domains shown, also called scFv TPL0674_03_A04) VH: QVQLVQSGSELKKPGASVKVSCKASGYTFTSYAMNWVRQAPGQGLEWMGWINTNTGNPTYAQGFTGRFVFSLDTSVSTAYLQISSLKAEDTAVYYCARDQGGDRHFGYWGQGTTVTVSS VL: QSELTQPPSASGTPGQRVTISCSGSSSNIGSHRVNWYQQLPGTAPKLLIYSNYHRPAGVPDRFSASKSGTSASLAISGLQSEDEADYYCAAWDDSLNGYVFGTGTQLTVL | 45.3 | 66.9
2 | TPL0674_03_F05 (scFv, V domains shown, also called scFv TPL0674_03_F05) VH: EVQLVQSGAEVKKPGASVRVSCKASGYSITNYGISWVRQAPGQGLEWMGWINTYNGNTNYAQKFQGRVTMTRDTSISTAYMELSRLRSDDTAVYYCARDHPYRGMDVWGQGTLVTVSS VL: SYELTQDPAVSVALGQTVRITCQGDSLRSYYASWYQQKPGQAPVLVIYGKNNRPSGIPDRFSGSSSGNTASLTITGAQAEDEADYYCNSRDSSGNHPHVVFGGGTKLTVL | 51.6 | 80.4
